Data reported in paper PMC4969574 (The EMBO Journal, 2016).
“And” between values parts separate entries of the source, which are not always exact repeats. Identical values can stand only once.

T1: TssA1 fused to the adenylate cyclase T25 or T18 subunit (P. aeruginosa, UniProt Q9I750 1-344)
T1 sequence: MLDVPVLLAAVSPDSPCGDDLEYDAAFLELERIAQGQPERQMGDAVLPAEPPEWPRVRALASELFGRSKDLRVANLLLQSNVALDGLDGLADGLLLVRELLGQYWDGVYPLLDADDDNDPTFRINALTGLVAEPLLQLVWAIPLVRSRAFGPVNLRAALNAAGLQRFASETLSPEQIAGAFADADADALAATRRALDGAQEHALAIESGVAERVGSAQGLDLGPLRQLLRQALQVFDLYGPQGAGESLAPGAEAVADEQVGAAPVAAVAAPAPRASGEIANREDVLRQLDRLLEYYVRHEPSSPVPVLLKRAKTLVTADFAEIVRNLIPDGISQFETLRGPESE

B1: TssK1 fused to the adenylate cyclase T25 or T18 subunit (natural protein)
chain: MSWNNRVVWSEGMFLRPQHFQQHDRYLETLVDGRCRSLLAGGWGFSELKLDDALLTQGKLAIVSARGVLPDGTPFNIPADDPAPAPLNVEESLRDGIVYLGLPLKRVGTRDTVEEGEALGGARYVSQVQEVRDDNAAFESRAPVALGSQAFRLLTERDGLGEYAAVGVARVREKRADQALSLDEDYLPPVLDIAAAPPLASFAKELLGLLHQRGEALAGRVVASSAGGASEIADFLLLQLVNRAEALTGHLSRVRPLHPQELYRELVALAGEFCTFTASQRRPEEYPVYNHDDLAASFAPVMLALRQALATVIDAKAIAIPIVEKAYGVHVAMLSDRSLIDNASFVLVVRADVPGESLRGHFPQQAKVGSVEHIRDLVNLQLPGIGLLPMPVAPRQIPYHAGSTYFELDRGSAHWKQLTHSGGFAFHIAGQFPGLNLAFWAIRG
B2: His6-TssA1 (natural protein)
chain: T1 sequence

What was measured:
[1] = biological target: T1, TssA1 fused to the adenylate cyclase …; test: two-hybrid; bacterial two-hybrid (BTH), T25 and T18 adenylate cyclase fusions in E. coli DHM1; β-galactosidase activity in Miller units and X-gal LB agar plates; conditions: partners not purified
[2] = biological target: the molecule itself; test: AUC; sedimentation velocity of His6-TssA1 at 0.8, 0.56 and 0.32 mg/ml, 20,000 and 30,000 rpm, 20 °C, 25 mM Tris-HCl pH 7.5, 200 mM NaCl; c(s) by SEDFIT

| Binder | fold above control (β‐galactosidase activity) [1] [fold] | stoichiometry N [2] |
| --- | --- | --- |
| B1 | ~20 | – |
| B2 | – | 12 and 24 |
